# According to doi:10.1101/645523:
# Experiments:
# Experiment in all cases: cryo-EM structure
# [1] = target: Capsid associated protein P30 of bacteriophage PR772 (bacteriophage PR772)
# [2] = target: Host-recognition protein P5 of bacteriophage PR772 (bacteriophage PR772)
# [3] = target: Major capsid protein P3 of bacteriophage PR772 (bacteriophage PR772)
substance,measurement,setting,value
Capsid associated protein P30 of bacteriophage PR772 (natural protein),stoichiometry N,[1],2
Host-recognition protein P5 of bacteriophage PR772 (natural protein),stoichiometry N,[2],3
Major capsid protein P3 of bacteriophage PR772 (natural protein),stoichiometry N,[3],3
